# Literature values as cited in US6872537B1, “Assays for the detection of microtubule depolymerization inhibitors” (Regents of the University of California, priority 1998, dated 2005).
# Conditions: literature values for comparison
substance,measurement,value
p97: AAA ATPase cited for comparison [reference compound],ATPase activity of other AAA family members,1 ATP/sec
